Test results as given in US20220325265A1, “GLUCOCEREBROSIDASE MUTANTS” (Hoffmann-la Roche Inc., priority 2019, published 2022).
Where “and” joins values, the source holds several entries; their conditions need not be identical. Equal entries are not always repeated.

Tests used:
[1] = pH screening of hGCase variants (activity assay, pH 3.5-8); assay type: biochemical; conditions: for relative activity: pH 3.5, 20 mM citric acid buffer, highest activity = 100%; for shape of pH spectrum: pH 3.5-8
Experimental: (§1) For all further GCase characterization experiments including the activity assay, 20 μM substrate concentration, 30-40 min incubation time and protein concentrations ranging from 25-100 nM were set as final assay settings to ensure measurements in the linear range. The overall DMSO concentration within the assay was kept at 0.5% (v/v) or even below, since DMSO influences the fluorescent signal with higher concentrations (experimentally tested, data not shown; confirmed by (Urban et al., 2008). Therefore, GCase activity buffer+1% (v/v) DMSO was also used for dilutions (table 2.9). The plate reader SpectraMax i3 (Molecular Devices) including the analysis software SoftMax Pro 6.4 was used for all activity measurements within this work. The program settings were kept the same for all activity runs: kinetic run, measurement temperature: 37° C., PMT Gain: high; flashes per read: 6; read height: 0.73305 mm from plate.
A pH optimum screening was done to observe a possible shift in the pH spectrum of the new variants due to structural modification of the enzymes. Therefore, three different buffers were used, covering a pH range of pH 3.5 to 8. For the screening, buffer substances were chosen after the use for purification buffers. Therefore, following buffers were prepared: Citric acid buffer (20 mM, pH 3.5-5), MES buffer (20 mM, pH 6-6.5) and HEPES buffer (20 mM, pH 7-8). The final protein concentration used for this assay was 75 nM. The activity assay was done as described in section 2.3.5 (table 2.11), merely the buffer was varied.
A possible pH optimum shift due to structural modifications should be examined. Since the GCase enzyme originally occurs within the lysosome, its natural pH optimum is reported to be between pH 4.7-6.0 (Lieberman et al., 2007; Liou et al., 2006; Tan et al., 2014). This could change when including slight modifications in the structure of the molecule. Thus, the mutants were tested within a pH range of 3.5 to 8 for enzymatic activity.

hGCase = assay: Inhibition of hGCase using isofagomine (IFG), IC50 determination; assay type: biochemical, human; conditions: reversible inhibitor isofagomine on the named hGCase variant; 25 nM protein, 10 min pre-incubation at RT, 20 μM res-β-glc
Experimental: IFG is a competitive, reversible inhibitor of hGCase, interacting with the active pocket of the enzyme (Powe et al., 2006).
To calculate the IC50, a concentration range of 0.002-100 μM IFG was tested. IFG was prepared with a stock concentration of 1 mM in DMSO. The final enzyme concentration was 25 nM. After adding the inhibitor to the enzyme, the solution was pre-incubated for 10 min at RT before adding the substrate (20 μM) for the activity measurement.
The evaluation and IC50 determination were done using GraphPad Prism7. hGCase activity with no inhibitor added was set to 100% relative enzyme activity. In case of evaluating the raw data via GraphPadPrism7, the applied inhibitor concentrations were first transformed to log 10×-values plottet on the x-axis. Further, the raw data measured with the activity assay in RFU was normalized to the highest activity value within one data set (equals 100%). 100% signal was defined as 10-12 μM IFG (=no inhibitor added). Data points were fitted and IC50 values were determined using log(inhibitor) vs. response-variable slope (four parameters) (GraphPadPrism7) following equation 9: […]
To determine whether the active binding site of an enzyme is compromised or altered, IC50 values were calculated for active site inhibitor and compared. In this work, the natural occurring GCase inhibitor isofagomine (IFG) and conditurol-β-epoxide (CBE) were used. IFG is known as a reversible inhibitor, interacting with the active site of the GCase enzyme, whereas CBE is an irreversible inhibitor of GCase (Powe et al., 2006). The IC50 of an enzyme is defined as the concentration of an inhibitor, where the response, in this case the enzyme activity, is reduced by half (Kalliokoski et al., 2013). Both assays were conducted as described in section 2.5.6. The inhibitor profiles of M53T/P55T using IFG and CBE as well as the IC50 profiles of all residual mutants combined are shown in FIG. 4.
The raw data was plotted by transforming the applied IFG/CBE concentration to a logarithmic scale (x-axis, FIG. 4) and by normalizing the activity signal with highest signal of each data set to 100% (defined with apparent inhibitor concentration of 10-12 μM, equal to no inhibitor). IC50 values were calculated using GraphPad Prism7 following equation 9.

[2] = Heat inactivation at 55° C., residual GCase activity of purified protein; assay type: physicochemical; conditions: for residual activities after 5 and 10 min of incubation (in words): 55° C., compared to R495HS2; for residual GCase activity after heat inactivation: 55° C. waterbath, 50 nM protein, initial activity = 100%
Experimental: as §1
Another approach to test the mutants for thermal stability is the irreversible heat inactivation at 55° C. (Futami et al., 2017; Zale & Klibanov, 1986). As initial screening to select for most promising candidates, this thermal stability approach was chosen (section 3.1.1). For this, supernatant samples of each construct were taken from the 30 ml S2 cell cultures, respectively (section 2.2). The protein concentration was not adjusted. The samples were incubated for 40 min in total at 55° C. (PCR Cycler Mastercycler gradient, Eppendorf) using PCR plates (FrameStar®96 well skirted PCR plate, 4titude Ltd.). Samples were taken after 5, 7, 10, 15, 20, 30 and 40 min for residual activity measurements. The activity assay was performed as described in section 2.3.5. The initial activity of each mutant was set to 100% before heating. Residual activities were calculated in regard to the initial activity. Data points were fitted using the one phase decay fit by GraphPad Prism7 following equation 3: […]
For the heat inactivation experiment of purified protein (see section 3.3.3), hGCase protein samples were prepared with a final concentration of 50 nM, diluted in hGCase activity buffer, pH 6.0 (table 2.9) and incubated for 5 and 10 minutes in the waterbath (Julabo 5A, Julabo) at 55° C.
The second approach was aimed to test residual GCase activity after thermal inactivation at a fixed temperature. With this additional approach, the focus was set on activity-based changes with increased incubation time (Futami et al., 2017; Zale & Klibanov, 1986). Here, samples were incubated for 5 and 10 minutes in the waterbath at 55° C. Residual GCase activities were measured with the initial activity set to 100% (before heating). FIG. 2 depicts calculated residual activities for tested mutants after incubation.

Molecule | IC50 (hGCase) | shape of pH spectrum [1] | relative activity [1] [%] | residual activities after 5 and 10 min of incubation (in words) [2] | residual GCase activity after heat inactivation ([2]; 10 min incubation) [%] | pH optimum ([1]; pH range 3.5-8, 75 nM protein, 100% relative activity) [pH] | residual GCase activity after heat inactivation ([2]; 5 min incubation) [%]
R495HS2: hGCase based on the Cerezyme sequence (R495H) but produced in S2 cells, His8-tagged; Seq. Id. No. 1 (protein, listed as Homo sapiens, His8 tag) ARPCIPKSFGYSSVVCVCNATYCDSFDPPTFPALGTFSRYESTRSGRRMELSMGPIQANHTGTGLLLTLQPEQKFQKVKGFGGAMTDAAALNILALSPPAQNLLLKSYFSEEGIGYNIIRVPMASCDFSIRTYTYADTPDDFQLHNFSLPEEDTKLKIPLIHRALQLAQRPVSLLASPWTSPTWLKTNGAVNGKGSLKGQPGDIYHQTWARYFVKFLDAYAEHKLQFWAVTAENEPSAGLLSGYPFQCLGFTPEHQRDFIARDLGPTLANSTHHNVRLLMLDDQRLLLPHWAKVVLTDPEAAKYVHGIAVHWYLDFLAPAKATLGETHRLFPNTMLFASEACVGSKFWEQSVRLGSWDRGMQYSHSIITNLLYHVVGWTDWNLALNPEGGPNWVRNFVDSPIIVDITKDTFYKQPMFYHLGHFSKFIPEGSQRVGLVASQKNDLDAVALMHPDGSAVVVVLNRSSKDVPLTIKDPAVGFLETISPGYSIHTYLWHRQ | 17 nM |  | 80 |  |  |  | 
K321N/H145L: Amicus double mutant hGCase R495H/K321N/H145L produced in S2 cells; Seq. Id. No. 3 (protein, listed as Homo sapiens, Amicus double mutant hGCase R495H/K321N/H145L produced in S2 cells; Id; No. 3) ARPCIPKSFGYSSVVCVCNATYCDSFDPPTFPALGTFSRYESTRSGRRMELSMGPIQANHTGTGLLLTLQPEQKFQKVKGFGGAMTDAAALNILALSPPAQNLLLKSYFSEEGIGYNIIRVPMASCDFSIRTYTYADTPDDFQLLNFSLPEEDTKLKIPLIHRALQLAQRPVSLLASPWTSPTWLKTNGAVNGKGSLKGQPGDIYHQTWARYFVKFLDAYAEHKLQFWAVTAENEPSAGLLSGYPFQCLGFTPEHQRDFIARDLGPTLANSTHHNVRLLMLDDQRLLLPHWAKVVLTDPEAAKYVHGIAVHWYLDFLAPANATLGETHRLFPNTMLFASEACVGSKFWEQSVRLGSWDRGMQYSHSIITNLLYHVVGWTDWNLALNPEGGPNWVRNFVDSPIIVDITKDTFYKQPMFYHLGHFSKFIPEGSQRVGLVASQKNDLDAVALMHPDGSAVVVVLNRSSKDVPLTIKDPAVGFLETISPGYSIHTYLWHRQ | 35 ± 11 nM | more bell-shaped pH spectrum |  | significantly higher residual activities |  |  | 
F31Y: recombinant human β-glucocerebrosidase variant R495H/F31Y, S2 cells; Seq. Id. No. 5 (protein, listed as Homo sapiens, recombinant human β-glucocerebrosidase variant R495H/F31Y, S2 cells; Id; No. 5) ARPCIPKSFGYSSVVCVCNATYCDSFDPPTYPALGTFSRYESTRSGRRMELSMGPIQANHTGTGLLLTLQPEQKFQKVKGFGGAMTDAAALNILALSPPAQNLLLKSYFSEEGIGYNIIRVPMASCDFSIRTYTYADTPDDFQLHNFSLPEEDTKLKIPLIHRALQLAQRPVSLLASPWTSPTWLKTNGAVNGKGSLKGQPGDIYHQTWARYFVKFLDAYAEHKLQFWAVTAENEPSAGLLSGYPFQCLGFTPEHQRDFIARDLGPTLANSTHHNVRLLMLDDQRLLLPHWAKVVLTDPEAAKYVHGIAVHWYLDFLAPAKATLGETHRLFPNTMLFASEACVGSKFWEQSVRLGSWDRGMQYSHSIITNLLYHVVGWTDWNLALNPEGGPNWVRNFVDSPIIVDITKDTFYKQPMFYHLGHFSKFIPEGSQRVGLVASQKNDLDAVALMHPDGSAVVVVLNRSSKDVPLTIKDPAVGFLETISPGYSIHTYLWHRQ | 28 ± 3 nM |  | ~80 |  | ~27 | 6 | 

Now from value to molecule, other results behind:

IC50 (hGCase) | shape of pH spectrum [1] | Molecule | relative activity [1] [%] | residual activities after 5 and 10 min of incubation (in words) [2] | residual GCase activity after heat inactivation ([2]; 10 min incubation) [%] | pH optimum ([1]; pH range 3.5-8, 75 nM protein, 100% relative activity) [pH] | residual GCase activity after heat inactivation ([2]; 5 min incubation) [%]
28 ± 3 nM |  | K321N: Amicus single mutant hGCase R495H/K321N produced in S2 cells; Seq. Id. No. 2 (protein, listed as Homo sapiens, Amicus single mutant hGCase R495H/K321N produced in S2 cells; Id; No. 2) ARPCIPKSFGYSSVVCVCNATYCDSFDPPTFPALGTFSRYESTRSGRRMELSMGPIQANHTGTGLLLTLQPEQKFQKVKGFGGAMTDAAALNILALSPPAQNLLLKSYFSEEGIGYNIIRVPMASCDFSIRTYTYADTPDDFQLHNFSLPEEDTKLKIPLIHRALQLAQRPVSLLASPWTSPTWLKTNGAVNGKGSLKGQPGDIYHQTWARYFVKFLDAYAEHKLQFWAVTAENEPSAGLLSGYPFQCLGFTPEHQRDFIARDLGPTLANSTHHNVRLLMLDDQRLLLPHWAKVVLTDPEAAKYVHGIAVHWYLDFLAPANATLGETHRLFPNTMLFASEACVGSKFWEQSVRLGSWDRGMQYSHSIITNLLYHVVGWTDWNLALNPEGGPNWVRNFVDSPIIVDITKDTFYKQPMFYHLGHFSKFIPEGSQRVGLVASQKNDLDAVALMHPDGSAVVVVLNRSSKDVPLTIKDPAVGFLETISPGYSIHTYLWHRQ |  | significantly higher residual activities |  |  | 
~40 nM and 40 nM | more bell-shaped pH spectrum | M53T/P55T: recombinant human β-glucocerebrosidase variant R495H/M53T/P55T, S2 cells; Seq. Id. No. 7 (protein, listed as Homo sapiens, recombinant human β-glucocerebrosidase variant R495H/M53T/P55T, S2 cells; Id; No. 7) ARPCIPKSFGYSSVVCVCNATYCDSFDPPTFPALGTFSRYESTRSGRRMELSTGTIQANHTGTGLLLTLQPEQKFQKVKGFGGAMTDAAALNILALSPPAQNLLLKSYFSEEGIGYNIIRVPMASCDFSIRTYTYADTPDDFQLHNFSLPEEDTKLKIPLIHRALQLAQRPVSLLASPWTSPTWLKTNGAVNGKGSLKGQPGDIYHQTWARYFVKFLDAYAEHKLQFWAVTAENEPSAGLLSGYPFQCLGFTPEHQRDFIARDLGPTLANSTHHNVRLLMLDDQRLLLPHWAKVVLTDPEAAKYVHGIAVHWYLDFLAPAKATLGETHRLFPNTMLFASEACVGSKFWEQSVRLGSWDRGMQYSHSIITNLLYHVVGWTDWNLALNPEGGPNWVRNFVDSPIIVDITKDTFYKQPMFYHLGHFSKFIPEGSQRVGLVASQKNDLDAVALMHPDGSAVVVVLNRSSKDVPLTIKDPAVGFLETISPGYSIHTYLWHRQ | 80 |  | 27 |  | 65
